Experiment: yeast display, Sf9 membrane polyspecificity reagent, FACS + sequencing; frameworks hold sequencing errors
How it was run: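 Nanobodies from a synthetic yeast display library (Saccharomyces cerevisiae BJ5465), induced 36–48 hours with galactose, were stained 1 hour at 4 °C with 10% biotinylated, detergent-solubilized Sf9 membrane reagent, enriched on streptavidin microbeads, then FACS-sorted. Anti-HA (expression) and streptavidin (reagent binding) fluorescence set low and high (top ~1%) gates. Polyreactivity labels come from the gate of origin. Genes were colony-PCR amplified, MiSeq 2 × 250 sequenced and filtered by CDR length.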

| Sequence | polyreactivity (PSR sort gate) |
| --- | --- |
| QVQLVESGGGLVQAGGSLRLSCAASGSTFEFYAMGWYRQAPGKERELVAAIWRGGSTHYADSVKGRFTISRDNAKNTVYLQMNSLKPEDTAVYYCAASPYIFWRFEYWGQGTQVTVSS | low polyreactivity |
| QVQLVESGGGLVQAGGSLRLSCAASGSTFEPYAMGCYRQAPGKERELVAAISWSGGSTYYADSVKGRFTISRDNAKNTVDLQMNSLKPEDTAVYYCAAESGVPYYLPVVIYYYWGQGTQVTVSS | high polyreactivity |
| QVQLVESGGGLVQAGGSLRLSCAASGSTFERYVMGWYRQRLGKKGSWLPVLNHNGGSTYYADSVKGRFTISRDNAKNTVYLQMNSLKPEDTAVYYCAASFRTVLDFGYWGQGTQVTVSS | low polyreactivity |
| QVQLVESGGGLVQAGGSLRLSCAASGSTFESNAMGWYRQAPGKERELVASISGSGGSTFYADSVKGRFTISRDNAKNTVYLQMNSLKPEDTAVYYCNRGRDEYDYWGQGTQVTVSS | low polyreactivity |
| QVQLVESGGGLVQAGGSLRLSCAASGSTFESYAMGWYRQAHGKERELVASISRSGGTTFYADSVKGRFTISRDNAKNTVYLQMNSLKPEDTAVYYCAAKRRRLGGDYWGQGTQVTVSS | high polyreactivity |
| QVQLVESGGGLVQAGGSLRLSCAASGSTFESYAMGWYRQAPGKERELVAAISWRVGSTYYADSVKGRFTISRDNAKNTVYLQMNSLKPEDTAVYYCASKGWYSHYGGYDYWGQGTQVTVSS | low polyreactivity |
| QVQLVESGGGLVQAGGSLRLSCAASGSTFEYNAMGWYRQAPGKERELVASSTNYADSVKGRFTISRDNAKNTVYLQMNSLKPVDTAVYYCAREQGVNRNHDYWGQGTQLTVSS | low polyreactivity |
| QVQLVESGGGLVQAGGSLRLSCAASGSTFEYNVMGWYRQAPGKERELVASITSDGNTNYSDSVKGRFTISRDNAKNTVYLQMNSLKPEDTAVYYCNFYTWHWTFGMDYWGQGTQVTVSS | low polyreactivity |
| QVQLVESGGGLVQAGGSLRLSCAASGSTFEYYAMGWDRQAPGKERELVAGISTGGSSNYADSVKGRFTISRDNAKNTVYLQMNSLKPEDTAVYYCNRDWALYVFGSHYHAYYSWGQGTQVTVSS | low polyreactivity |
| QVQLVESGGGLVQAGGSLRLSCAASGSTFEYYAMGWYRQAPGKEREFVAAITLSGGRTYYADSVKGRFTISRDNAKNTVYLQMNSLKPEDTAVYYCNVVVTWWLPSEYDYWGQGTQVTVSS | high polyreactivity |
| QVQLVESGGGLVQAGGSLRLSCAASGSTFEYYAMGWYRQAPGKERELVAAISRGGSTYYADSVKGRFTISRDNAKNTVYLQMNSLKPEDTAVYYCAAAPDYRAEYDYWGQGTQVTVSS | low polyreactivity |
| QVQLVESGGGLVQAGGSLRLSCAASGSTFFAYAMGWYRQAPGKERELVAAITGRGSTYYADSVKGRFSISRDNAKNTVYLQMNSLKPEDTAVYYCAAQRSRRYYRLDYWGQGTQVTVSS | high polyreactivity |
| QVQLVESGGGLVQAGGSLRLSCAASGSTFFDNAMGWYRQAPGKERELVAAITWNGGRTYYADSVKGRFTISRDNAKNTVYLQMNSLKPEDTAVYYCAKVPLYGRVIYRQPDVYSWGQGTQVTVSS | high polyreactivity |
| QVQLVESGGGLVQAGGSLRLSCAASGSTFFFNAMGWYRQAPGKERELVASITDTSGRTYYADSVKGRFTISRDNAKNTVYLHMNSLKPEDTAVYYCDKDFDQGGREMDYWGQGTQVTVSS | low polyreactivity |
| QVQLVESGGGLVQAGGSLRLSCAASGSTFFGYDMGWYRQAPGKERELVASINSGGSTYFADSEKGRFTISRDNPKNTVYLQMNSLKPEDTAVYYCAARPSYLYPYDRTGEYDYWGQGTQVTVSS | high polyreactivity |
| QVQLVESGGGLVQAGGSLRLSCAASGSTFFIYAMGWYRQAPGKERELVAAISKSGGTTYYADSVKGRFTISRDNAKNTVYLQMNSLKPEDTAVYYCAAYYTKGVARRQFYYWGQGTQVTVSS | high polyreactivity |
| QVQLVESGGGLVQAGGSLRLSCAASGSTFFIYAMGWYRQAPGKERELVATITKRGGRTYYADSVKGRFTISRDNAKNTVYLQMNSLKPEDTAVYYCAKDLWAVYLPGYDYWGQGTQVTVSS | low polyreactivity |

— the nanobody polyreactivity screen of Harvey et al. (2022)
